System: MS2 coat protein
Experiment: apparent KD of MS2 coat protein; designed switch direction (-1 OFF switch, 1 ON switch): -1; higher = weaker reporter binding
Procedure, shortened: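 Designed RNA switches sharing common flanks were transcribed on Illumina chips by stalled E. coli RNA polymerase. They were titrated with SNAP-549-labelled MS2 coat protein, from 0.7 or 1.5 nM doubling to 3 µM, in Tris-HCl pH 7.5 buffer with KCl, MgCl2, BSA, DTT, tRNA and Tween-20. Titrations ran without input, with 200 uM small-molecule ligand, or with an oligonucleotide input. The apparent KD of each design is the median over its clusters, after curve-fitting of normalised cluster fluorescence.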

[1] = Eterna round: R95, input ligand: microRNA oligo, concentration not stated
[2] = input ligand: microRNA oligo, concentration not stated
[3] = Eterna round: R95, input ligand: FMN 200 uM
[4] = Eterna round: R95, input ligand: none

Sequence | apparent KD of MS2 coat protein [1] | apparent KD of MS2 coat protein (input ligand: FMN 200 uM) | apparent KD of MS2 coat protein [2] | apparent KD of MS2 coat protein (input ligand: none) | apparent KD of MS2 coat protein [3] | apparent KD of MS2 coat protein [4]
CGUAUGUGAGGAUAUGACAAUGGUAUCUUCGGAUACCAUUGUCAGAAGGUACAUGAGGAUCACCCAUGUAGAUC [Exclusion 4 - Mod Brourd Ex 4-3: 20 v.3] (puzzle: Exclusion 4) | 24 nM | – | – | – | – | –
AUUAUGUAAGGAUAUCUUACAUGUGACUUCGGUCACUGUUCAGAGAAGGUACAUGAGGAUCACCCAUGUAGAAC [Ex4-3: 46] (puzzle: Exclusion 4) | 18 nM | – | – | – | – | –
GGGAGGGAUGCAGGAUAUGCGAGGGAGGGAGGAGUAGAAGGGCAUGAGGAUCACCCAUGUGACAUGAGGAUCACCCAUGUGGGA [Success - 29% A] (Eterna round: R96, puzzle: Exclusion NG 1) | – | 78 nM | 80.2 nM | 82 nM | – | –
GCUUGGCGAGGAUAUACAUGAGGAUCACCCAUGUGAGAGAAGAAAGUGAGGAAGAAAAGUAGAAGGCGCUGAGG [Mat - Exclusion 3 - Mod of Salish D61] (puzzle: Exclusion 3) | 56.4 nM | – | – | – | 372 nM | 63 nM
UGAGCUUGUGUGAGGAUAUUUCGAGUGAAAGCUUGAGAGAAGGCACAUGAGGAUCACCCAUGUAAGCGAGUUCG [-26.1, -24 kcal, A 28%, 1bis-1] (Eterna round: R97, puzzle: Brourd's mod of Exclusion 4) | – | 84.2 nM | – | 86.8 nM | – | –
AACCAGCGAGGAUAUUGUUGAUAAAACAUGAGGAUCACCCAUGUCACGUGAUCUUCCCAACAAGAAGGUGCACUAA [Xeoratdior] (Eterna round: R97, puzzle: Exclusion 5) | – | 652 nM | – | 301 nM | – | –
UCUAUUUUGCGAGGAUAUCGACCAUUCCUCUUUACAUGAGGAUCACCCAUGUUCUUUUUCUACAACGAGAAGGCGCUCUAAGUU [JR_ExcNG2_Sub061] (Eterna round: R96, puzzle: Exclusion NG 2) | – | 71.9 nM | 65 nM | 59.1 nM | – | –
AAACGGCGGAUCGUGGCUUUUUGCUCGUCUUGUGCUUCGACAUGAGGAUCACCCAUGUGGUGGUGAUCCGUUGUAAA [Grok-var2-16 mod JAL] (puzzle: Sensor v3, turn-off variant 2) | 15.8 nM | – | – | – | 58.6 nM | 83.5 nM
AAGAGUGCAGGAUAUACUUGGUAGGGUAAGAUGAGUGAGUGACAUGAGGAUCACCCAUGUAGAAGGGCAGAGAG [JR_Exclu2_Sub056] (puzzle: Exclusion 2) | 107 nM | – | – | – | – | –
UUCCUGUCAGGAUAUGACUAGAGGCACGAAAGUGUGUUUAGUUAGAAGGGACAUGAGGAUCACCCAUGUAGUCC [Bring Us a Shrubbery-20] (puzzle: Exclusion 4) | 21.9 nM | – | – | – | – | –
CUUUACAUGCUAAGAUCCUACAUGAGGAUCACCCAUGUGGUCCGGUGACGUGAGUCACCGGACUUAGCUCGUCUUGU [salish99_S_TOV1_R5_097] (Eterna round: R97, puzzle: Sensor, turn-off variant 1) | – | 83.2 nM | – | 119 nM | – | –
AGUCGGAAGACAAAAGGAAACAUGAGGAUCACCCAUGUAAAGGGUGAAAACAAGCCACCCGCUCGUCUUAAAGAAAA [Mat - Sensor v2- JL mod - D44] (Eterna round: R96, puzzle: Sensor v2, turn-off variant) | – | 40.7 nM | 144 nM | 46.1 nM | – | –
CCACCGCCGUCAGGAUAUAACAUGAGGAUCACCCAUGUGUGAAGCAUGAGAGACUCUAACAAGUGUUAGAAGGGACUUAUUGCG [Eternabot solution 36] (Eterna round: R96, puzzle: Exclusion NG 2) | – | 176 nM | 63.2 nM | 75.8 nM | – | –
AAUGUCUGAGGAUAUCGAAUAGUGUACAUGAGGAUCACCCAUGUUUUUAUUAGUAUAUUACGAGAAGGCAGUGGAA [JR_E5_Sub086] (puzzle: Exclusion 5) | 16.1 nM | – | – | – | – | –
UAACUUAUUGUAAGGAUAUCGGUCCGAAAGGACAACGAGAAGGUACAUGAGGAUCACCCAUGUGAAAUAAGAAU [Mod of Zala 21 - Jieux - Brourd's Mod of Exclusion 4] (Eterna round: R97, puzzle: Brourd's mod of Exclusion 4) | – | 261 nM | – | 29.4 nM | – | –
ACGGCUGAAGGAUAUGCAGUGACCACAAAGGUAUGACUAUCACAUGAGGAUCACCCAUGUAGAAGGUCGGCGCC [Eternabot (L2) Solution 29] (Eterna round: R97, puzzle: Exclusion 2) | – | 13.6 nM | – | 14.4 nM | – | –
UUCGCAAAAUUAGGUCCUAACAUGAGGAUCACCCAUGUUCUAGGUAAGUGCCUCCGCCCGCUAACUGUUCGUCUUGU [Eternabot (L1) Solution 36] (Eterna round: R97, puzzle: Sensor, turn-off variant 1) | – | 23.1 nM | – | 24.9 nM | – | –

Sequence | apparent KD of MS2 coat protein [1] | apparent KD of MS2 coat protein (input ligand: FMN 200 uM) | apparent KD of MS2 coat protein [2] | apparent KD of MS2 coat protein (input ligand: none) | apparent KD of MS2 coat protein [3] | apparent KD of MS2 coat protein [4]
UAUGUGUCAGGAUAUUAAUUAUAGGAGAAUGUGACGAUGAUUAAGAAGGGACAUGAGGAUCACCCAUGUUCAUC [JR_Ex4_Sub025] (Eterna round: R97, puzzle: Exclusion 4) | – | 21.3 nM | – | 19 nM | – | –
ACAUGAGGAUCACCCAUGUGAAAAGAAUGGCUGACACAGAGUUAGGAUAUGCGUGCAUAUCUAACGCAGAAGGGACAUGACUGG [Deportation 82 - Jieux - Exclusion NG 3] (Eterna round: R96, puzzle: Exclusion NG 3) | – | 33.7 nM | 33.9 nM | 30.2 nM | – | –
AAUUUACAUGAGGAUCACCCAUGUGAGGAUAUUGUAUAUUUAUAGAAAUGUGGGUGUGCAAGAAGGCACAUAGG [Alacar 2] (Eterna round: R97, puzzle: Exclusion 1) | – | 134 nM | – | 63.6 nM | – | –
AUAAUUAGAGGAUAUGGUACAUUGCACAUGAGGAUCACCCAUGUAAGGUGACCCAUGUCGCCAGAAGGCUGAUAUG [Eternabot (L2) Solution 46] (Eterna round: R97, puzzle: Exclusion 5) | – | 3460 nM | – | 460 nM | – | –
GCACGGAAUGUAGGAUAUUAGUGCGAUUAGCACUGAGAAGGACAUGAGGAUCACCCAUGUAAUAACAUAAUAAACCUUCCGUGC [Eli exng1 - 046] (Eterna round: R96, puzzle: Exclusion NG 1) | – | 12.1 nM | 8.27 nM | 13.6 nM | – | –
UUUUAACAUGAGGAUCACCCAUGUGAGGAUAUCGAAAUUUAUAUUAAUAUUAAUUUUACGAGAAGGCACAUUUU [JMF 34] (puzzle: Exclusion 1) | 94.6 nM | – | – | – | – | –
AGUCAGGCGGUAGGAUAUCCAUAUCGAGUGACCCUUUCAUAACAUGAGGAUCACCCAUGUCGGUGGGAGAAGGGCCGUACGGCA [Mat - Exclusion NG 2 - Mod of JL - D68] (Eterna round: R96, puzzle: Exclusion NG 2) | – | 116 nM | 52.3 nM | 89.3 nM | – | –
UUUUUUGUUUUUUUUACAAGCUUUUUGCUCGUCUUAUUAACAUGAGGAUCACCCAUGUCAAAGAGACCUCAUGUAUU [Sensor v3 - turn-off variant 2 - 1] (puzzle: Sensor v3, turn-off variant 2) | 15.7 nM | – | – | – | 91.2 nM | 207 nM
UAUAUAUAGUAAGGAUAUGUAUUAAUUUUAUAAACAGAAGGUACUGACAUGAGGAUCACCCAUGUUUUAGUGUGGGCAUGUAGA [JMF's solution 9] (Eterna round: R96, puzzle: Exclusion NG 1) | – | – | 72.8 nM | – | – | –
AGAAAUGCCCAUGGCCGCAAGCUUUCUGCUUGUCUUACCACAUGAGGAUCACCCAUGUGACAUGGGCUCCUUAUAAU [Soralaer] (puzzle: Sensor v3, turn-off variant 2) | 11 nM | – | – | – | 14.4 nM | 13.2 nM
CGGUGACAUGAGGAUCACCCAUGUCAGGAUAUCCAGGUCGACAAUGAGCUGUACGAUUGGAGAAGGGAUACGGG [EX1 C.9] (Eterna round: R97, puzzle: Exclusion 1) | – | 20.6 nM | – | 23.7 nM | – | –
CGAAUUCGUUAGGAUAUGAGGCAGAGGUCCGCCUCAGAAGGAAUGACAUGAGGAUCACCCAUGUAGACCCAAGG [Eternabot (Original) Solution 1] (Eterna round: R97, puzzle: Exclusion 6) | – | 18.9 nM | – | 19.1 nM | – | –
ACAUGAGGAUCACCCAUGUCAGGUGGGUCCUCUCCGGCUGUUGAGGAUAUAGUCCGGUAUCCGCGCUAGAAGGUGAGGGCCGGC [Aenatbe mod 17] (Eterna round: R96, puzzle: Exclusion NG 3) | – | 29.8 nM | 31.1 nM | 33.7 nM | – | –
UUUUCGUAAGGAUAUGGUUAGAUCUACGAAAGUAGAUCUAACCAGAAGGUACAUGAGGAUCACCCAUGUUGAUA [Mod of Brourd 21 - Jieux - Exclusion 4] (Eterna round: R97, puzzle: Exclusion 4) | – | 32 nM | – | 22.5 nM | – | –
UUAAUGAUUGUGAGGAUAUUUGAUAGAUAGAUAUUAGAGAAGGUACAUGAGGAUCACCCAUGUGUGAUUAGAGA [Brourd's EX4 #70] (Eterna round: R97, puzzle: Brourd's mod of Exclusion 4) | – | 164 nM | – | 75.4 nM | – | –
AUUUUGUGAGGAUAUGUGGCUUCGAUCGUGAAAUCGAGGCUACAGAAGGCACAUGAGGAUCACCCAUGUUCCUA [salish99_ex4_r4_117] (Eterna round: R97, puzzle: Exclusion 4) | – | 178 nM | – | 19.6 nM | – | –

From the supplement of paper PMC9170038
